Where a chain is given by its changes, count along the chain named.
How the values were obtained:
Relipidated TF [1] = molecular target: Relipidated TF (UniProt P13726 33-295, limits assumed); experiment: cell-based or functional assay
relipidated TF [2] = molecular target: relipidated TF (UniProt P13726 33-295, limits assumed); experiment: cell-based or functional assay
mouse TF ECD-His6 = molecular target: T1, mouse TF ECD-His6 (mouse, UniProt P20352 29-251); experiment: BLI (ForteBio Octet)
T1 construct: made in Expi293 cells; also called TF-His; mTF

[3] = molecular target: human Tissue Factor (hTF), endogenously expressed on human TF-positive cells (human, UniProt P13726 33-295); experiment: cell-based or functional assay
[4] = molecular target: T2, human Tissue Factor on MDA-MB-231 cells (human, UniProt P13726 33-295); experiment: cell-based or functional assay
[5] = molecular target: T2, human Tissue Factor on MDA-MB-231 cells; experiment: cell-based or functional assay; remark: listed apart in the source

B1: 39A (antibody, human IgG1, V domains shown)
VH: QVQLVQSGAEVKKPGSSVKVSCKASGGTFSSNAIGWVRQAPGQGLEWMGSIIPIIGFANYAQKFQGRVTITADESTSTAYMELSSLRSEDTAVYYCARDSGYYYGASSFGMDVWGQGTTVTVSS
VL: EIVMTQSPATLSVSPGERATLSCRASQSVSSNLAWYQQKPGQAPRLLIYGASTRATGIPARFSGSGSGTEFTLTISSLQSEDFAVYYCEQYNNLPLTFGGGTKVEIK
- % ETP, TGA 10 min pre-incubation, 10 nM Ab (Relipidated TF [1]): 0%
- % Peak IIa, TGA […] min pre-incubation, 10 nM Ab (Relipidated TF [1]): 13%
- % Peak IIa, TGA […] min pre-incubation, 50 nM Ab (Relipidated TF [1]): 8%
- % Peak IIa, TGA […] min pre-incubation, 100 nM Ab (Relipidated TF [1]): 7%
- % ttPeak, TGA 10 min pre-incubation, 10 nM Ab (Relipidated TF [1]): 319%
- % ttPeak, TGA 10 min pre-incubation, 50 nM Ab (Relipidated TF [1]): 491%
- % ttPeak, TGA 10 min pre-incubation, 100 nM Ab (Relipidated TF [1]): 537%
- Lag Time, TGA 10 min pre-incubation, 10 nM Ab (Relipidated TF [1]): 19.6 min
- Lag Time, TGA 10 min pre-incubation, 50 nM Ab (Relipidated TF [1]): 30.7 min
- Lag Time, TGA 10 min pre-incubation, 100 nM Ab (Relipidated TF [1]): 33.6 min
- Peak IIa, TGA […] min pre-incubation, 10 nM Ab (Relipidated TF [1]): 36 nM
- Peak IIa, TGA […] min pre-incubation, 50 nM Ab (Relipidated TF [1]): 22 nM
- Peak IIa, TGA […] min pre-incubation, 100 nM Ab (Relipidated TF [1]): 19 nM
- ttPeak, TGA 10 min pre-incubation, 10 nM Ab (Relipidated TF [1]): 29.3 min
- ttPeak, TGA 10 min pre-incubation, 50 nM Ab (Relipidated TF [1]): 41.4 min
- ttPeak, TGA 10 min pre-incubation, 100 nM Ab (Relipidated TF [1]): 44.6 min

B2: 54E (antibody, human IgG1, V domains shown)
VH: QVQLVQSGAEVKKPGASVKVSCKASGYTFANYYMHWVRQAPGQGLEWMGIINPSGGITVYAQKFQGRVTMTRDTSTSTVYMELSSLRSEDTAVYYCARGGSKVAALAFDIWGQGTMVTVSS
VL: DIQMTQSPSSLSASVGDRVTITCQASQDISNSLNWYQQKPGKAPKLLIYDASNLETGVPSRFSGSRSGTDFTFTISSLQPEDIATYYCQQYNFHPLTFGGGTKVEIK
- % ETP, TGA 10 min pre-incubation, 10 nM Ab (Relipidated TF [1]): 83%
- % Peak IIa, TGA […] min pre-incubation, 10 nM Ab (Relipidated TF [1]): 43%
- % Peak IIa, TGA […] min pre-incubation, 50 nM Ab (Relipidated TF [1]): 16%
- % Peak IIa, TGA […] min pre-incubation, 100 nM Ab (Relipidated TF [1]): 13%
- % ttPeak, TGA 10 min pre-incubation, 10 nM Ab (Relipidated TF [1]): 96%
- % ttPeak, TGA 10 min pre-incubation, 50 nM Ab (Relipidated TF [1]): 303%
- % ttPeak, TGA 10 min pre-incubation, 100 nM Ab (Relipidated TF [1]): 371%
- ETP, TGA 10 min pre-incubation, 10 nM Ab (Relipidated TF [1]): 1520 nM·min
- Lag Time, TGA 10 min pre-incubation, 10 nM Ab (Relipidated TF [1]): 6.5 min
- Lag Time, TGA 10 min pre-incubation, 50 nM Ab (Relipidated TF [1]): 18.3 min
- Lag Time, TGA 10 min pre-incubation, 100 nM Ab (Relipidated TF [1]): 22.3 min
- Peak IIa, TGA […] min pre-incubation, 10 nM Ab (Relipidated TF [1]): 121 nM
- Peak IIa, TGA […] min pre-incubation, 50 nM Ab (Relipidated TF [1]): 44 nM
- Peak IIa, TGA […] min pre-incubation, 100 nM Ab (Relipidated TF [1]): 37 nM
- ttPeak, TGA 10 min pre-incubation, 10 nM Ab (Relipidated TF [1]): 13.7 min
- ttPeak, TGA 10 min pre-incubation, 50 nM Ab (Relipidated TF [1]): 28.2 min
- ttPeak, TGA 10 min pre-incubation, 100 nM Ab (Relipidated TF [1]): 33 min

B3: 43B1 (antibody, human IgG1, V domains shown)
VH: QVQLQESGPGLVKPSQTLSLTCTVSGGSISSGQYWSWIRQHPGKGLEWIGEIYYSGSTRYNPSLKSRVTISVDTSKNQFSLKLSSVTAADTAVYYCARDAPYYYGGGYYYYMDVWGKGTTVTVSS
VL: EIVLTQSPGTLSLSPGERATLSCRASESVDSSYLAWYQQKPGQAPRLLIYGASTRQTGIPDRFSGSGSGTDFTLTISRLEPEDFAVYYCQQAGVVPYTFGGGTKVEIK
notes: human IgG1
- TGA without pre-incubation, 10 nM Ab: % Peak IIa (relipidated TF [2]): 87%
- TGA without pre-incubation, 10 nM Ab: ETP (relipidated TF [2]): 2290 nM·min
- TGA without pre-incubation, 10 nM Ab: Lag Time (relipidated TF [2]): 4.9 min
- TGA without pre-incubation, 10 nM Ab: Peak IIa (relipidated TF [2]): 299 nM
- TGA without pre-incubation, 10 nM Ab: ttPeak (relipidated TF [2]): 8.9 min
- TGA without pre-incubation, 50 nM Ab: ETP (relipidated TF [2]): 2200 nM·min
- TGA without pre-incubation, 50 nM Ab: Lag Time (relipidated TF [2]): 5.2 min
- TGA without pre-incubation, 50 nM Ab: Peak IIa (relipidated TF [2]): 232 nM
- TGA without pre-incubation, 100 nM Ab: ETP (relipidated TF [2]): 2170 nM·min
- TGA without pre-incubation, 100 nM Ab: Lag Time (relipidated TF [2]): 5.2 min
- TGA without pre-incubation, 100 nM Ab: Peak IIa (relipidated TF [2]): 221 nM
- Kd (mouse TF ECD-His6): 72.1 nM

B4: anti-TF antibody 43B7 (antibody, human IgG1, V domains shown)
VH: B3 VH
VL: B3 VL with S53D, T54S, Q56A, A92D
- % GM-CSF, 2.56 nM antibody, MDA-MB-231 cells + FVIIa [3]: 50%
- % GM-CSF, 6.4 nM antibody, MDA-MB-231 cells + FVIIa [3]: 17%

B5: anti-TF antibody 43D (antibody, human IgG1, V domains shown)
VH: QVQLQQWGAGLLKPSETLSLTCAVYGGSLSGYYWSWIRQPPGKGLEWIGEIGASGSTRYNPSLKSRVTISVDTSKNQFSLKLSSVTAADTAVYYCARDTPYYYEGGYYYYMDVWGKGTTVTVSS
VL: B3 VL with E27Q, D30S, T54S, Q56A, A92V
- % GM-CSF, 2.56 nM antibody, MDA-MB-231 cells + FVIIa [3]: 56%
- % GM-CSF, 6.4 nM antibody, MDA-MB-231 cells + FVIIa [3]: 24%
- % GM-CSF, 16 nM antibody, MDA-MB-231 cells + FVIIa [3]: 13%
- % GM-CSF, 40 nM antibody, MDA-MB-231 cells + FVIIa [3]: 11%
- % GM-CSF, 100 nM antibody, MDA-MB-231 cells + FVIIa [3]: 12%

B6: 43D (antibody, V domains shown)
VH: B5 VH
VL: B3 VL with E27Q, D30S, T54S, Q56A, A92V
- % IL8, 2.56 nM Ab [4]: 58%
- % IL8, 6.4 nM Ab [4]: 21%
- % IL8, 40 nM Ab [4]: 5%
- % IL8, 100 nM Ab [4]: 5%
- % FXa, 25 nM Ab [5]: 109%

B7: 43B (antibody, V domains shown)
VH: B3 VH
VL: B3 VL with E27Q, D30S, T54S, Q56A, A92V
- % IL8, 2.56 nM Ab [4]: 50%
- % IL8, 16 nM Ab [4]: 5%
- % IL8, 40 nM Ab [4]: 4%
- % IL8, 100 nM Ab [4]: 4%

B8: anti-TF antibody 43B1 (antibody, human IgG1, V domains shown)
VH: B3 VH
VL: B3 VL
- % GM-CSF, 2.56 nM antibody, MDA-MB-231 cells + FVIIa [3]: 50%
- % GM-CSF, 6.4 nM antibody, MDA-MB-231 cells + FVIIa [3]: 16%

B9: 43B7 (antibody, V domains shown)
VH: B3 VH
VL: B3 VL with S53D, T54S, Q56A, A92D
- % IL8, 2.56 nM Ab [4]: 55%
- % IL8, 6.4 nM Ab [4]: 15%
- % IL8, 16 nM Ab [4]: 8%
- % IL8, 40 nM Ab [4]: 4%
- % IL8, 100 nM Ab [4]: 4%

B10: 5G9 (humanized TF8-5G9, CNTO 860) (antibody, V domains shown)
VH: QVQLVESGGGVVQPGRSLRLSCKASGFNIKDYYMHWVRQAPGKGLEWIGLIDPENGNTIYDPKFQGRFTISADNSKNTLFLQMDSLRPEDTAVYYCARDNSYYFDYWGQGTPVTVSS
VL: DIQMTQSPSSLSASVGDRVTITCKASQDIRKYLNWYQQKPGKAPKLLIYYATSLADGVPSRFSGSGSGTDYTFTISSLQPEDIATYYCLQHGESPYTFGQGTKLEIT
- % FXa, 12.5 nM Ab [5]: 37%
- % FXa, 25 nM Ab [5]: 33%
- % FXa, 50 nM Ab [5]: 30%
- % FXa, 100 nM Ab [5]: 30%

B11: 25G1 (antibody, human IgG1, kappa, V domains shown)
VH: QVQLVQSGAEVKKPGASVKVSCKASGYTFRSYGISWVRQAPGQGLEWMGWVAPYSGNTNYAQKLQGRVTMTTDTSTSTAYMELRSLRSDDTAVYYCARDAGTYSPYGYGMDVWGQGTTVTVSS
VL: DIQMTQSPSTLSASVGDRVTITCRASHSIDSWLAWYQQKPGKAPKLLIYKASYLESGVPSRFSGSGSGTEFTLTISSLQPDDFATYYCQLFQSLPPFTFGGGTKVEIKR
- % IL8, 2.56 nM Ab [4]: 46%
- % IL8, 6.4 nM Ab [4]: 12%
- % IL8, 16 nM Ab [4]: 9%
- % IL8, 40 nM Ab [4]: 8%
- % IL8, 100 nM Ab [4]: 9%

B12: anti-TF antibody 25A5 (antibody, human IgG1, kappa, V domains shown)
VH: B11 VH with R30D, S31V, V51I, Y106F
VL: B11 VL with H27E, D30S, S31N, S52Y, Y53S, S56Y, L90Q, S93K
- % GM-CSF, 2.56 nM antibody, MDA-MB-231 cells + FVIIa [3]: 72%
- % GM-CSF, 6.4 nM antibody, MDA-MB-231 cells + FVIIa [3]: 18%

B13: 25A3 (antibody, human IgG1, kappa, V domains shown)
VH: B11 VH with R30D, S31V, V51I, Y106F
VL: B11 VL with R24Q, H27Q, D30N, S31N, S52Y, Y53N
- % IL8, 2.56 nM Ab [4]: 47%
- % IL8, 6.4 nM Ab [4]: 9%
- % IL8, 16 nM Ab [4]: 8%
- % IL8, 40 nM Ab [4]: 8%
- % IL8, 100 nM Ab [4]: 8%

B14: 25G9 (antibody, human IgG1, kappa, V domains shown)
VH: B11 VH
VL: B11 VL with R24Q, H27Q, K50S, L90R
- % IL8, 2.56 nM Ab [4]: 51%
- % IL8, 16 nM Ab [4]: 15%
- % IL8, 40 nM Ab [4]: 14%
- % IL8, 100 nM Ab [4]: 13%

B15: 25A5 (antibody, human IgG1, kappa, V domains shown)
VH: B11 VH with R30D, S31V, V51I, Y106F
VL: B11 VL with H27E, D30S, S31N, S52Y, Y53S, S56Y, L90Q, S93K
- % IL8, 2.56 nM Ab [4]: 70%
- % IL8, 16 nM Ab [4]: 7%
- % IL8, 40 nM Ab [4]: 7%
